Blank lines part the entries; values can stand above or below the molecule they belong to.
Columns and labels:
[1] = molecular target: T细胞表面PD-1 (human) (UniProt Q15116); assay: flow cytometry, MNC cultured alone 3 days, no BXOS antibody
[2] = molecular target: T细胞表面PD-1 (human) (UniProt Q15116); assay: flow cytometry, MNC co-cultured with DC, no BXOS antibody
[3] = molecular target: 生物素化PD-1 (PD-1:PD-L1抑制剂筛选试剂盒, AcroBiosystems，EP-101) (UniProt Q15116); assay: competition ELISA, PD-L1 coated, biotinylated PD-1; positive control antibody
[4] = molecular target: T1, 人PD-1重组蛋白(Acro Biosystems，PD-1-H5221) (human, UniProt Q15116 25-167); assay: phage ELISA on coated human PD-1 recombinant protein
T1 construct: Bought
T1 sequence (Q15116 25-167 limits assumed): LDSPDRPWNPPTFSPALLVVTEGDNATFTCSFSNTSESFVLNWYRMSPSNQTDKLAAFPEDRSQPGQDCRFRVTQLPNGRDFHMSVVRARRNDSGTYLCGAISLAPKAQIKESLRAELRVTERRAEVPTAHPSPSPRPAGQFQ

阻断率 [3]: 70.7 %
Molecule: 阳性对照αPD-1单克隆抗体:Anti-PD1mAb，Human(IgG4)Lot No.B52-63NS1-AS,ACRO Biosystems (antibody)

binding result [4]: binds
B5: scFv5 (scFv)
scFv: QVQLVESGGGVVQPGRSLRLDCKASGITFSNSGMHWVRQAPGKGLEWVAVIWYDGSKRYYADSVKGRFTISRDNSKNTLFLQMNSLRAEDTAVYYCATNDDYWGQGTLVTVSSGGGGSGGGGSGGGGSEIVMTQSPATLSLSPGERATLSCRASQSVSSSVSWYQQKLGQAPRLLIYDASNRATGIPARFSGSGSGTDFTLTISSLEPEDFAVYYCQQRSKWPLTFGAGTKVEIKR

The remaining lines, values behind:

Molecule: 商品化的抗PD-1的流式抗体PD-1-PE(biolegend，329906)
PD-1表达量 (% of T cells stained by PD-1-PE) [1]: 26.2 %
PD-1表达量 (% of T cells stained by PD-1-PE) [2]: 32.6 %

B1: scFv3 (scFv)
scFv: QVQLVQSGAEVKKPGSSVKVSCKASGGTFSSYAISWVRQAPGQGLEWMGRIIPILGIANYAQKFQGRVTITADKSTSTAYKELSSLRSEDTAVYYCAAPLPKNGVYPWGQGTLVTVSSGGGGSGGGGSGGGGSGGGGSEIVMTQSPATLSSSPGERVTLSCRASQSVTSHLAWYQQRPGQAPRLLIYDASKRATGIPARFSGSGSGTDFTLTISSLEPEDFATYYCLQDYRYPRTFGQGTKVEIKR
binding result [4]: binds

B2: scFv4 (scFv)
scFv: QVQLVQSGGGLVKPGGSLRLSCVASGFTFSNSGMHWVRQAPGKGLEWVAVIWYDGSKRYYADSVKGRFTISRDNSKNTLFLQMNSLRAEDTAVYYCATNDDYWGQGTLVTVSSGGGGSGGGGSGGGGSEIVMTQSPATLSLSPGERATLSCRASQSVSSNLAWYQQKPGQAPRLLIYDASTRATGIPARFSGSGSGTDFTLTISSLQPEDFATYYCLQDYNYPRTFGQGTKLEIKR
binding result [4]: binds

B3: scFv1 (scFv)
scFv: QVQLVQSGGDLVKPGGSLRLSCATSGFTFSTYNMHWVRQAPGKGLEWVSSISRSSDYIYYADSVKGRFTMSRDNAKTSLYLQMNSLRADDTAVYYCARDSWIYDGSGYSSDAFDIWGQGTMVTVSGGGGSGGGGSGGGGSEIVLTQSPATLSLSPGERATLSCRASQSISSYLSWYQQKPGQAPRLLIYDASNRATGIPARFSGGGSGTDFTLTISSLEPEDFAVYYCQQRNSWPLTFGGGTKVEIKR
binding result [4]: binds

B4: scFv2 (scFv)
scFv: QVQLVESGGGVVQPGKSLRLSCAASGFSFRNYDMHWVRQAPGRGLEWVAVTWYDGSNKYYADSVKGRFTISRDNSKNTVYLHINSLRAEDTAVYYCAKDQAHYYNYSTGHFSYYFDSWGQGTLVTVSGGGGSGGGGSGGGGSEIVLTQSPATLSLSPGQRATLSCRTSQTIRKHLAWYQQKPGQAPRLLVYDISSRATGIPARFSGSGSGTDFTLTISSLQPDDFATYYCQRYDTYPRTFGQGTKVEIKR
binding result [4]: binds
